These results are taken from doi:10.1101/2021.09.24.461649 (bioRxiv, 2021).

This data set concerns the molecule itself. Put plainly: SEC.

B1: EspC (ESX-1 secreted protein C), wild type (natural protein)
chain: MMTENLTVQPERLGVLASHHDNAAVDASSGVEAAAGLGESVAITHGPYCSQFNDTLNVYLTAHNALGSSLHTAGVDLAKSLRIAAKIYSEADEAWRKAIDGLFT
With B1, the “stoichiometry N” value stood at 6.

By stoichiometry N is commonly meant a count of units in the complex or per binding partner.
